# In US20140235553:
# Columns and labels:
# [1] = system: NTD-αA crystallin fusion protein
# [2] = system: NTD-αB crystallin fusion protein
substance,measurement,setting,value
lysozyme,CLA: suppression of chemically-induced aggregation of substrate protein,[1],"These proteins also displayed CLA, as evidenced by suppressing the chemically-induced aggregation of substrate proteins such as lysozyme"
same,CLA: suppression of chemically-induced aggregation of substrate protein,[2],"These proteins also displayed CLA, as evidenced by suppressing the chemically-induced aggregation of substrate proteins such as lysozyme"
